Residue numbers refer to the chain shown, from its start.
Columns and labels:
human CD20 [1] = molecular target: T1, human CD20 (human, UniProt P11836 1-297); assay: fixed Ramos cell ELISA, Fab 1 h, anti-His6 peroxidase, OD 450 (overall binding)
T1 sequence (looked up): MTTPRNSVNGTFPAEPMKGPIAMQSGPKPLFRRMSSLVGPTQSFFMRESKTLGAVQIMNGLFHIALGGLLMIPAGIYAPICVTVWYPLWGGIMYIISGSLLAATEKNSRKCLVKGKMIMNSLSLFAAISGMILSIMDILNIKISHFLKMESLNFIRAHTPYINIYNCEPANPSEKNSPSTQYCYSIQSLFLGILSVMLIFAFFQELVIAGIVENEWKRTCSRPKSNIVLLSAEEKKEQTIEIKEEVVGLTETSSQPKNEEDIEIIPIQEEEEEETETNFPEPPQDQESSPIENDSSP
Protocol: (§1) Ramos cells (ATCC) were grown in RPMI 1640 containing 10% heat inactivated Fetal Bovine Serum. Fifty microliters of Ramos cells (2-4×10⁶/ml), were pipetted into each well of a 96 well Poly-D-Lysine coated plate (BIOCAT Becton Dickinson Labware) and incubated at 37620 C., 5% CO₂ for 18 hours. Media was gently aspirated and […] of aqueous buffered zinc formalin (Anatech, Ltd.) was added to each well for 15 minutes at room temperature. Z-fix was removed and the plate was washed with phosphate-buffered saline (PBS) containing 0.05% Tween 20. The plate was blocked for 1 hour with 1% bovine serum albumin (BSA) in PBS. Dilutions of Fab or IgG were incubated with the fixed and blocked Ramos cells for 1 hour at room temperature. The plate was washed 3× with PBS 0.05% Tween […] of anti-His6 Peroxidase Mouse Monoclonal Antibody (Roche Diagnostics Corporation) at a 1:500 dilution were added to the wells and incubated 1 hour at room temperature. The plate was washed as above and developed with tetramethyl benzidine, and the reaction was stopped with 5N H₂SO₄. The plate absorbance was read at OD 450 nm. Dilutions of Fab and conjugate were in 1% BSA/PBS.

human CD20 (human) = human CD20 (human) (UniProt P11836); assay: fixed Ramos cell ELISA, IgG, on-rate format: 5 min IgG step and 5 min second antibody step, goat anti-human IgG-HRP, OD 450
human CD20 [2] = molecular target: T1, human CD20; assay: IgG binding to primary human peripheral blood B cells (CD19 sorted), KinExA equilibrium software
Protocol: (§2) SKW 6.4 cells were grown in DMEM media supplemented with 10% FCS and harvested at 5-10×10⁵ cells per ml. […] For human peripheral blood B cells, fresh CD19 positively sorted B cells were obtained from Allcells. These cells were washed two times in PBS with 1% BSA and resuspended at a concentration of 8×10⁷/ml.
(§3) Twelve, 3 fold serial dilutions were then made and 100ul of each dilution placed in a 96 well plate. To each dilution […] of antibody at 100 ng/ml was added and the plate incubated at 37620 C., 5% CO₂ for 4 hours. Each sample was then filtered with a 96 well 1 micron filter (Millipore) to remove the cells and bound antibody. Free antibody in solution was then quantified using an ELISA. Briefly, free IgG was captured in a 96 well plate coated with 1 mg/ml of anti-human kappa antibody (Southern Biotechnology) and detected using an anti-human Fc antibody coupled with HRP (Southern Biotechnology). The plate was developed using Fast TMB substrate (Pierce) and read at 450 nm.
(§4) The Kd of the antibody was then determined using the KinExA equilibrium software for an unknown antigen concentration. The OD450 value for each serial dilution was fitted with an estimated antigen concentration and the actual antibody concentration. The Kd and actual antigen concentration were then calculated.

human CD20 [3] = molecular target: T1, human CD20; assay: fixed Ramos cell ELISA, OD 450 nm
human CD20 [4] = molecular target: T1, human CD20; assay: cell-based or functional assay
human CD20 [5] = molecular target: T1, human CD20; assay: IgG binding to SKW 6.4 cells over time, free antibody by ELISA, direct kinetics KinExA software
Protocol: SKW 6.4 cells were grown in DMEM media supplemented with 10% FCS and harvested at 5-10×10⁵ cells per ml. […] An equal volume of antibody at 100 ng/ml in PBS with 1% BSA at 37620 C. was then added to the cells and the timing for the experiment started. At time intervals from 60 seconds to 10800 seconds a sample of the antibody cell solution was sampled and filtered to remove cells and bound antibody. Free antibody remaining at each time point was then quantified using the ELISA described above.
The kinetics for the antibody cell reaction was calculated using the direct kinetics KinExA software. The OD450 value for each time point was fitted using the previously calculated Kd and antigen concentration and the Kon and Koff for the reaction calculated.

human CD20 [6] = molecular target: T1, human CD20; assay: IgG binding to SKW 6.4 B lymphoma cells, free antibody by ELISA, KinExA equilibrium software
Protocol: as §2, §3, §4

human CD20 [7] = molecular target: T1, human CD20; assay: IgG binding to SKW 6.4 cells, KinExA equilibrium software
Protocol: as §2, §3, §4

human CD20 [8] = molecular target: T1, human CD20; assay: fixed Ramos cell ELISA, off-rate format: overnight incubation in PBS/BSA after the Fab step, anti-His6 peroxidase, OD 450
Protocol: as §1
(§5) IgG assays were performed similarly except IgG bound was detected with goat anti-human IgG-HRP. To compare antibody off-rate, after incubation with Fab or IgG the plates were incubated over night in PBS/BSA, before proceeding with the second antibody step. To compare antibody on-rate, incubation steps for Fab/IgG binding and with the second antibody were both of 5 minutes duration.

human CD20 [9] = molecular target: T1, human CD20; assay: fixed Ramos cell ELISA, IgG, on-rate format: 5 min IgG step and 5 min second antibody step, goat anti-human IgG-HRP, OD 450
Protocol: as §1, §5

human CD20 [10] = molecular target: T1, human CD20; assay: fixed Ramos cell ELISA, on-rate format: 5 min Fab step and 5 min second antibody step, anti-His6 peroxidase, OD 450
Protocol: as §1
IgG assays were performed similarly except IgG bound was detected with goat anti-human IgG-HRP. […]

Molecule: C2B8 Fab
- EC50 (read off the curve) (human CD20 [1]): 0.06 mg/L

Molecule: commercial RITUXAN (Oncology Supply Co.) (antibody)
- EC50 (read off the curve) (human CD20 (human)): 1 mg/L

B1: AME 33 IgG (antibody, V domains shown)
VH: EVQLVQSGAEVKKPGESLKISCKGSGRTFTSYNMHWVRQMPGKGLEWMGAIYPLTGDTSYNQKSKLQVTISADKSISTAYLQWSSLKASDTAMYYCARSTYVGGDWQFDVWGKGTTVTVSS
VL: EIVLTQSPGTLSLSPGERATLSCRASSSVPYIHWYQQKPGQAPRLLIYATSALASGIPDRFSGSGSGTDFTLTISRLEPEDFAVYYCQQWLSNPPTFGQGTKLEIKR
notes: Full IgG; also called AME 33 antibody
- Kd (human CD20 [2]): 0.113 nM
- maximum OD relative to the C2B8 antibody (human CD20 [3]): ~1.5 times
- ADCC, Estimated EC50s, ug/ml (Wil-2 cells as target) (human CD20 [4]): 0.0063 µg/mL
- koff (human CD20 [5]): 7.7e-05 s⁻¹
- kon (human CD20 [5]): 780000 M⁻¹ s⁻¹
- Kd (human CD20 [6]): 0.097 nM
- fold enhancement of Kd compared to the C2B8 antibody (human CD20 [7]): 10 fold

B2: AME 1D10 Fab (Fab, V domains shown)
VH: B1 VH with R27Y, T55N, S64F, Q107T
VL: EIVLTQSPGTLSLSPGERATLSCRASSSVPYIHWYQQKPGQAPRLLIYATSNLASGIPDRFSGSGSGTDFTLTISRLEPEDFAVYYCQQWLSNPPTFGQGTKLEIK
notes: Fab, His-tagged (anti-His6 detection); constant regions and tag not given
- EC50 (read off the curve) (human CD20 [8]): ~0.2 mg/L
- EC50 (read off the curve) (human CD20 [1]): ~0.06 mg/L

B3: AME 2C2 IgG (antibody, V domains shown)
VH: B1 VH with R27Y, T55N, S64F, Q107T
VL: B2 VL with P30S
notes: constant regions not spelled out
- EC50 (read off the curve) (human CD20 [9]): ~0.5 mg/L

B4: AME 15 Fab (Fab, V domains shown)
VH: B1 VH with R27Y, T55N, Q62R, Q107T
VL: B2 VL
notes: as for B2
- EC50 (read off the curve) (human CD20 [8]): ~0.2 mg/L
- EC50 (read off the curve) (human CD20 [1]): ~0.05 mg/L

B5: AME 15 IgG (antibody, V domains shown)
VH: B1 VH with R27Y, T55N, Q62R, Q107T
VL: B2 VL
notes: Full IgG
- maximum OD relative to the C2B8 antibody (human CD20 [3]): ~1.5 times
- EC50 (read off the curve) (human CD20 [9]): ~0.3 mg/L

B6: AME 18 Fab (Fab, V domains shown)
VH: B1 VH with S64F, T100Y, Q107T
VL: B2 VL with N52A
notes: as for B2
- EC50 (read off the curve) (human CD20 [10]): ~0.3 mg/L
- EC50 (read off the curve) (human CD20 [1]): ~0.06 mg/L

B7: AME 18 IgG (antibody, V domains shown)
VH: B1 VH with S64F, T100Y, Q107T
VL: B2 VL with N52A
notes: Full IgG
- maximum OD relative to the C2B8 antibody (human CD20 [3]): ~1.5 times

B8: AME 33 Fab (Fab, V domains shown)
VH: B1 VH
VL: B2 VL with N52A
notes: Fab
- EC50 (read off the curve) (human CD20 [10]): ~0.5 mg/L
- EC50 (read off the curve) (human CD20 [1]): ~0.08 mg/L

B9: AME 4H5 Fab (Fab, V domains shown)
VH: QVQLVQSGAEVKKPGASVKVSCKASGYTFTSYNMHWVRQAPGQGLEWMGAIYPGNGDTSYNQKFKWRVTMTRDTSTSTVYMELSSLRSEDTAVYYCARSTYYGGDWQFDQWGKGTTVTVSS
VL: DIQMTQSPSSLSASVGDRVTITCRASSSVHYIHWYQQKPGKVPKLLIYATSNLASGVPSRFSGSGSGTDFTLTISSLQPEDVATYYCQQWTFNPPTFGGGTKVEIK
notes: as for B2
- EC50 (read off the curve) (human CD20 [8]): ~0.1 mg/L
- EC50 (read off the curve) (human CD20 [1]): ~0.06 mg/L

B10: AME 5 IgG (antibody, V domains shown)
VH: B9 VH with Q110E
VL: B9 VL with N52G, Q89T
notes: Full IgG
- koff (human CD20 [5]): 7.9e-05 s⁻¹
- kon (human CD20 [5]): 580000 M⁻¹ s⁻¹
- Kd (human CD20 [6]): 0.145 nM
- fold enhancement of Kd compared to the C2B8 antibody (human CD20 [7]): 10 fold

B11: AME 1D10 IgG (antibody, V domains shown)
VH: B1 VH with R27Y, T55N, S64F, Q107T
VL: B2 VL
notes: Full IgG
- maximum OD relative to the C2B8 antibody (human CD20 [3]): ~1.5 times
- EC50 (read off the curve) (human CD20 [9]): ~0.4 mg/L

B12: 21E1 Hum (Fab, V domains shown)
VH: B1 VH with R27Y, L54G, T55N, S64F, L66G, V102Y, Q107S
VL: B2 VL with P30S
notes: the panels are titled Fab; also called AME 21E1 Hum; AME 21E1 Hum Fab
- binding result (human CD20 [1]): no binding (tested: about 7 µg/ml)

B13: AME 4H5 IgG (antibody, V domains shown)
VH: B9 VH
VL: B9 VL
notes: Full IgG
- maximum OD relative to the C2B8 antibody (human CD20 [3]): ~1.5 times
